Experimental data: publication doi:10.1101/2022.08.25.505150 (bioRxiv, 2022)

What was measured:
[1] = molecular target: 6His-PilC (Streptococcus sanguinis 2908); assay: ITC
[2] = molecular target: 6His-PilC (Streptococcus sanguinis 2908); assay: SEC-MALS
SEC-MALS = molecular target: the molecule itself; assay: SEC-MALS

## PilA_(T95A) (from UniProt A0A0B7GNW3 33-164) (domain or fragment)
[1]
  % of the wild-type binding (KD ratio to the WT): 38.3%

## 6His-PilA (from UniProt A0A0B7GNW3 33-164) (domain or fragment)
[1]
  Kd: 23.8 nM
[2]
  stoichiometry N: 1

B1: 6His-PilA (domain or fragment, Streptococcus sanguinis 2908, UniProt A0A0B7GNW3 33-164, looked up)
chain: DTGQSQTQRMYNYLKAKYTATSGTQLAWGAYLDPVDGNPSSVYAEFDERAHNVDPSTEPIKSTHTFKDGSVAEIEMNGQLVDGLTGPENYNITIKSKSKLAGSNDYYEHIVTFNFDTKGIRSEEGHLRSAQK
SEC-MALS
  stoichiometry N: 2
